Experimental data taken from doi:10.1101/2024.06.21.600001 (bioRxiv, 2024).

Experiments:
Experiment in all cases: immunostaining of cells or tissue
Details in all cases: one partner purified
[1] = target: T1, Sudan ebolavirus glycoprotein (SUDV GP), full-length transmembrane (Sudan ebolavirus (SUDV), UniProt Q7T9D9)
T1 construct: source: MDCK SIAT-1 cells expressing SUDV GP, on the cell surface

[2] = target: Reston ebolavirus glycoprotein (RESTV GP) (Reston ebolavirus, isolate ; …, UniProt Q66799)
[3] = target: T2, Zaire ebolavirus glycoprotein (EBOV GP), full-length transmembrane, Mayinga (Zaire ebolavirus (EBOV), Mayinga, UniProt Q05320)
T2 construct: source: MDCK SIAT-1 cells expressing EBOV GP, on the cell surface

[4] = target: T3, Bundibugyo ebolavirus glycoprotein (BDBV GP), full-length transmembrane (Bundibugyo ebolavirus (YP_003815435.1), UniProt B8XCN0)
T3 construct: source: MDCK SIAT-1 cells expressing BDBV GP, on the cell surface

[5] = target: Tai Forest ebolavirus glycoprotein (TAFV GP) (Tai Forest ebolavirus (TAFV), UniProt Q66810)

Measured: binding result

B1: mAb 11886, recombinant rabbit IgG (antibody, V domains shown)
VH: QSVEESGGRLVTPGTPLTLTCIVSGFSLSNYYMSWVRQVPGKGLEWIGVIGWSGTSSYASWAKGRFTISKTASTTVDLKITSPTTEDTATYFCARVLYIGGGFNYYDAFDPWGPGTLVTVS
VL: DVVMTQTPASVSEPVGGTVTIKCQASQSIGSNLAWYQQKPGQPPKLLIYAASTLASGVPSRFKGSGSGTEFTLTISDLECADAATYYCQCTYYDSSYVYNNFGGGTEVVVK
notes: source: HEK293F, transfected, purified (Protein A); copies: 2 + 2
binds: all assays above

B2: mAb 11883, recombinant rabbit IgG (antibody, V domains shown)
VH: QEQLVESGGGLVQPEGSLTLTCTASGFSFSSNCWRCWVRQAPGKGLEWIACVCAGRSGGTTYYASWAKGRFTISKTSSPTVTLQMTSLTAADTATYFCARAGYDDYGDASFFNLWGPGTLVTVS
VL: AVVLTQTASPVSTPVGGTVTIKCQASQNIYSNLAWYQQKPGQPPKLLIYSASTLASGVPSRFKGSGSGTEYTLTISDLECADAATYYCQRYYYLSGSADNTFGGGTEVVVK
notes: as for B1
binds: all assays above
